From patent US20250282870A1 (BIOENTRE, published 2025) come the findings set out here.

Experiment [1] concerns the target T1, human CTLA4 expressed on Jurkat T cells (CTLA4 effector cells) (human, UniProt P16410 36-223).
T1 sequence (looked up): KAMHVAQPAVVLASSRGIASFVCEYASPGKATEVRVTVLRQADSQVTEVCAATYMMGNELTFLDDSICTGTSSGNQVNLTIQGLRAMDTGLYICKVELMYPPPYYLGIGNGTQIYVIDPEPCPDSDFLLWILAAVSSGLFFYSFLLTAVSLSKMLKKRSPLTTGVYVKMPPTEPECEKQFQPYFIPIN
As to the kind of experiment: cell-based or functional assay.

Experiment [2] deals with FcγRII (CD32) expressed on Raji cells. The experiment in a line: cell-based or functional assay.

B1: 26 F(ab')2 (synthetic) (other)
VH: QVQLKESGPGLVAPSQSLSITCTVSGFSLTSYGVYWVRQPPGKGLEWLGVIWAGGTTNYNSALMSRLSISKDNSKSQVFLKMSSLQTDDTAMYYCARGPPHAMMKRGYAMDYWGQGTSVIVSS
VL: QNVLTQSPAIMPASPGEKVTMTCSATSSITYMSWYQQKSGSSPRLLIYDTSNLASGVPVRFSGSGSGTSYSLTISRMEAEDAATYYCQQWSSYPLTFGAGTKLELK
On to B1, for which the “activity titration curve, CTLA4 blockade assay, against 26 HuIgG1” value in experiment [1] is > 2 fold of 26 HuIgG1.

B2: 26 HuIgG1 (chimeric antibody: VH and VL of mouse antibody 26 on a human IgG1 scaffold) (antibody, V domains shown)
VH: B1 VH
VL: B1 VL
Turning to B2, the “RLU ratio of the CTLA4 blockade assay with anti-CD32 antibody at 10 µg per ml” value in experiment [2] is ~50%.
